According to patent publication US20180244762A1 (KODIAK SCIENCES, published 2018):

Key:
[1] = target: T1, recombinant human PDGF-BB (human, UniProt P01127 82-190); experiment: optical biosensor (Proteon XPR36 / Biacore 2000), binder amine-coupled, rhPDGF-BB injected, 25 C
T1 construct: also called rhPDGF-BB; rhPDGFBB
Procedure: Binding studies were performed at 25° C. and 37° C. using BioRad Proteon XPR36 and Biacore 2000 optical biosensors equipped with GLM (Proteon) and CM4 (Biacore) sensor chips and equilibrated with running buffer (10 m/M HEPES, 150 mM NaCl, 0.005% Teen-20, 0.2 mg/ml BSA).

[2] = target: T1, recombinant human PDGF-BB; experiment: competitive ELISA: binder preincubated with 0.2 nM rhPDGF-BB, competitor immobilized PDGFR/Fc
[3] = target: T1, recombinant human PDGF-BB; experiment: cell-based or functional assay
[4] = target: T1, recombinant human PDGF-BB; experiment: competitive ELISA: OG1448 preincubated with 0.2 nM PDGF-BB plus rhVEGFA-165 at 0.2, 0.6 and 1.0 nM, competitor immobilized PDGFRb/Fc; in the presence of rhVEGFA-165 (0.2, 0.6 and 1.0 nM)
[5] = target: T1, recombinant human PDGF-BB; experiment: SPR (Biacore T200, 25 C), binder captured by anti-human IgG, PDGF-BB as analyte, run B
Procedure: (§1) Each PDGF/VEGF variant was captured to a level of approximately 150 RUs. The running and sample buffer for the PDGF analysis was HBS-EP+300mM NaCl (10 mM 4-(2-hydroxyethyl)-1-piperazineethanesulfonic acid (HEPES) pH 7.4, 300 mM NaCl, 3mM ethylenediaminetetraacetic acid (EDTA), 0.05% (v/v) Tween-20). […] The surface was then regenerated with a 30 second pulse of 3M MgCl₂, a 30 second pulse of an ionic regeneration buffer (0.46M KSCN, 1.83 M MgCl2, 0.92 M urea, and 1.83 M guanidine-HCI pH7.4, Andersson et al., Analytical Chemistry, 1999) and then equilibrated with a 30 second pulse of HBS-EP+ 300 mM NaCl running buffer.
(§2) All SPR assays were performed at 25° C. with a data collection rate of1Hz using a Biacore T200 instrument (GE Healthcare). The resulting PDGP and VEGP sensorgrams were double referenced using both a control surface and buffer injections. The rate constants were determined by fitting the data to a 1:1 Langmuir model with Biacore T200 evaluation software v2.0 and the equation […].

[6] = target: T1, recombinant human PDGF-BB; experiment: SPR (Biacore T200, 25 C), binder captured by anti-human IgG, PDGF-BB as analyte, run A
Procedure: as §1, §2

[7] = target: T1, recombinant human PDGF-BB; experiment: SPR (Biacore T200, 25 C), binder captured by anti-human IgG, PDGF-BB as analyte, run C
Procedure: as §1, §2

[8] = target: T1, recombinant human PDGF-BB; experiment: SPR (Biacore T200, 25 C), binder captured by anti-human IgG, PDGF-BB as analyte, average of the runs
Procedure: as §1, §2

T1 sequence (P01127 82-190): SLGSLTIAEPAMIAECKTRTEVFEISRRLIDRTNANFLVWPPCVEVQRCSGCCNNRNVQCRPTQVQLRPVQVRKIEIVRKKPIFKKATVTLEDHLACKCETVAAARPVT

B1: OG1448 (TAF443 conjugated to the OG1802 biopolymer) (other)
heavy: LVVTPPGPELVLNVSSTFVLTCSGSAPVVWERMSQEPPQEMAKAQDGTFSSVLTLTNLTGLDTGEYFCTHNDSRGLETDERKRLYIFVPDPTVGFLPNDAEELFIFLTEITEITIPCRVTDPQLVVTLHEKKGDVALPVPYDHQRGFSGIFEDRSYICKTTIGDREVDSDAYYVYRLQVSSINVSVNAVQTVVRQGENITLMCIVIGNEVVNFEWTYPRKESGRLVEPVTDFLLDMPYHIRSILHIPSAELEDSGTYTCNVTESVNDHQDEKAINITVVESGGGGGSGGGGSEVQLVESGGGLVQPGGSLRLSCAASGYDFTHYGMNWVRQAPGKGLEWVGWINTYTGEPTYAADFKRRFTFSLDTSKSTAYLQMNSLRAEDTAVYYCAKYPYYYGTSHWYFDVWGQGTLVTVSSASTKGPSVFPLAPSSKSTSGGTAALGCLVKDYFPEPVTVSWNSGALTSGVHTFPAVLQSSGLYSLSSVVTVPSSSLGTQTYICNVNHKPSNTKVDKKVEPKSCDKTHTCPPCPAPEAAGAPSVFLFPPKPKDTLMISRTPEVTCVVVDVSHEDPEVKFNWYVDGVEVHNAKTKPREEQYNSTYRVVSVLTVLHQDWLNGKEYKCKVSNKALPAPIEKTISKAKGQPREPQVYTLPPSREEMTKNQVSLTCLVKGFYPSDIAVEWESNGQPENNYKTTPPVLDSDGSFFLYSKLTVDKSRWQQGNVFSCSVMHEALHNHYTQKSLSCSPGK
light: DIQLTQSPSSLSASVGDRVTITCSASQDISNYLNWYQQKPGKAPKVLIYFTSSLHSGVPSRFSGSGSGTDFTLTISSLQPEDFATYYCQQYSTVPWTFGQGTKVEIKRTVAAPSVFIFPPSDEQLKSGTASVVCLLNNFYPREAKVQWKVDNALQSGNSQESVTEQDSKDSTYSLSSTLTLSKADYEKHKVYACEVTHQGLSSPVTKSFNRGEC
modifications: OG1802 biopolymer (about 750 kDa, 9-arm HEMA-PC, maleimide) on the cysteine 443 residue (L443C, EU numbering)
notes: also called TAF443 polymer conjugate
[1]
  Kd: 17 pM
[2]
  IC50: 54 pM
[3]
  Inhibition of PDGF induced proliferation of HPVPs, IC50: 2900 pM
[4]
  IC50: 25 pM

B2: TAF443-3A250K (other)
heavy: B1 heavy
light: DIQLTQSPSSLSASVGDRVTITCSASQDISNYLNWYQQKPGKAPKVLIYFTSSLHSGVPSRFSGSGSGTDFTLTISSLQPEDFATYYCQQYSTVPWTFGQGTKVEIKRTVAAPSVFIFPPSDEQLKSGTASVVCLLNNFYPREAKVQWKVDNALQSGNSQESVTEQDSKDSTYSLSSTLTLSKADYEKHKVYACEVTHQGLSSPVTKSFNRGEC
modifications: polymer conjugate, label 3A250K; polymer and attachment site not described for this conjugate
notes: also called R3644-3A
[5]
  Kd: 1.73 pM
  koff: 4.96e-05 s⁻¹
  kon: 2.86e+07 M⁻¹ s⁻¹
  t½: 3.88 h
[6]
  Kd: 1.03 pM
  koff: 5.92e-05 s⁻¹
  kon: 5.76e+07 M⁻¹ s⁻¹
  t½: 3.25 h
[7]
  Kd: 1.6 pM
  koff: 7.52e-05 s⁻¹
  kon: 4.71e+07 M⁻¹ s⁻¹
  t½: 2.56 h
[8]
  Kd: 1.5 pM
